{
  "source": "patent US20030199022",
  "about": "“Tamoxifen and 4-hydroxytamoxifen-activated system for regulated production of proteins in eukaryotic cells” (Board of Trustees of University of Illinois, published 2003)",
  "binders": {"B1": {"name": "ATL4/PAL (dsDNA)", "DNA 1": "AAGCTTGGGCCACTGTGGCCCATCAAGATATCGAGATGGGCCACTGTGGCCCATCGACAGGAATTCACGGGCCACTGTGGCCCATCAAGATATCGAGATGGGCCACTGTGGCCCATCGACTCTAGA", "DNA 2": "TCTAGAGTCGATGGGCCACAGTGGCCCATCTCGATATCTTGATGGGCCACAGTGGCCCGTGAATTCCTGTCGATGGGCCACAGTGGCCCATCTCGATATCTTGATGGGCCACAGTGGCCCAAGCTT"}, "B2": {"name": "pS2 PAL probe (dsDNA)", "DNA 1": "AGCTTCTCTATTGGGCCACTGTGGCCCTCATCTGAAGCT", "DNA 2": "AGCTTCAGATGAGGGCCACAGTGGCCCAATAGAGAAGCT"}, "B3": {"name": "ATL2/cERE (dsDNA)", "DNA 1": "AAGCTTAGGTCACTGTGACCTATCAAGATATCGAGATAGGTCACTGTGACCTATCGACTCTAGA", "DNA 2": "TCTAGAGTCGATAGGTCACAGTGACCTATCTCGATATCTTGATAGGTCACAGTGACCTAAGCTT"}},
  "key": {"ER4.3 (in cell)": {"biological_target": "ER4.3 (in cell) (Homo sapiens, UniProt P03372 SEQ:1-595, E203W,Q214V,G215R,H216P,N217T)", "assay": "cell_activity; HepG2, 10 nM OHT", "details": "chain copies: 2 inferred"}, "ER3M (in cell)": {"biological_target": "ER3M (in cell) (Homo sapiens, UniProt P03372 SEQ:1-595, E203W,Q214A,H216G)", "assay": "cell_activity; HepG2, 10 nM OHT", "details": "chain copies: 2 inferred"}, "ERα wild type (hERα)": {"biological_target": "T1, ERα wild type (hERα) (Homo sapiens, UniProt P03372 SEQ:1-595)", "T1 chain": "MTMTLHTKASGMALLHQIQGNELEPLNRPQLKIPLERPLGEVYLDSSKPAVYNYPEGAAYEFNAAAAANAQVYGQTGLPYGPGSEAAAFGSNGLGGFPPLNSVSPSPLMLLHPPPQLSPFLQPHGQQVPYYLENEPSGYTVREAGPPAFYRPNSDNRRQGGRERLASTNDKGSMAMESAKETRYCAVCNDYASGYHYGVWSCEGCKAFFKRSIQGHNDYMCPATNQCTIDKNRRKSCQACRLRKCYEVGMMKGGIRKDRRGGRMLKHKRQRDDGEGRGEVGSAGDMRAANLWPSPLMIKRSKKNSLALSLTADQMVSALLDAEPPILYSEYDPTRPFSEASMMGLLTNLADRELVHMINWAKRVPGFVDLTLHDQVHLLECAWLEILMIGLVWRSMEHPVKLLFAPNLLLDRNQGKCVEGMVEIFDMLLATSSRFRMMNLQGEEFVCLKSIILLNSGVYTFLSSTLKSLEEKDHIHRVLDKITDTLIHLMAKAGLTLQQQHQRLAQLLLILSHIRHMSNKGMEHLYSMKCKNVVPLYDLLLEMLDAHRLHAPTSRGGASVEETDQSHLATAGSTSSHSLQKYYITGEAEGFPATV", "assay": "EMSA; negligible binding", "details": "tags: CHO-S whole cell extract; chain copies: 2 stated; label: labeled", "procedure": "(§1) To compare binding of wild type hERα and the ER mutants to the EREs, protein titrations were performed. Increasing amounts of extracts containing equivalent levels of wild-type ER or ER mutants were incubated with the cERE. The ER:ERE complexes were then analyzed by EMSA.\n(§2) To test this idea, synthetic probe (SEQ NO: 63) comprising a perfect palindrome with both half sites representing the imperfect ERE half site in the pS2 gene was prepared (FIG. 1A(ii), pS2 PAL)."}, "ER3.1": {"biological_target": "ER3.1 (Homo sapiens, UniProt P03372 SEQ:1-595, E203W,Q214N,G215R,D218S)", "assay": "EMSA", "details": "chain copies: 2 stated; label: labeled", "procedure": "as §1, §2"}, "ER4.3": {"biological_target": "ER4.3 (Homo sapiens, UniProt P03372 SEQ:1-595, E203W,Q214V,G215R,H216P,N217T)", "assay": "EMSA", "details": "chain copies: 2 stated; label: labeled", "procedure": "as §1, §2"}, "ER4": {"biological_target": "ER4 (Homo sapiens, UniProt P03372 SEQ:1-595, E203W,Q214A,G215R,H216G)", "assay": "EMSA", "details": "chain copies: 2 stated; label: labeled", "procedure": "as §1, §2"}, "ER2": {"biological_target": "ER2 (Homo sapiens, UniProt P03372 SEQ:1-595, E203W,Q214A,G215R)", "assay": "EMSA", "details": "chain copies: 2 stated; label: labeled", "procedure": "as §1, §2"}, "ER3M": {"biological_target": "ER3M (Homo sapiens, UniProt P03372 SEQ:1-595, E203W,Q214A,H216G)", "assay": "EMSA; modestly lower than the other four mutants", "details": "chain copies: 2 stated; label: labeled"}, "ERα wild type (in cell)": {"biological_target": "T2, ERα wild type (in cell) (Homo sapiens, UniProt P03372 SEQ:1-595)", "T2 chain": "T1 chain", "assay": "cell_activity; HepG2, 10 nM MOX, 2.5 ng plasmid", "details": "chain copies: 2 inferred", "method": "Fresh medium and (if any) hormones were added. For MCF-7 and 231 cells, transient transfection was carried out using the Tfx™-20 reagent (Promega; Madison, Wis.) according to the manufacturer's direction with minor changes. Briefly, 1×10⁵ cells were plated in each well of 12-well microplates one day before transfection. A 1:3 ratio of DNA to lipid was used. The DMEM/F12 medium without serum was used as carrier for the DNA-lipid mixture. After 1 hour incubation with the DNA-lipid-DMEM/F12 at 37° C., the cells were transferred to fresh DMEM/F12 supplemented with 10% CD-FBS, 50,000 U/I of penicillin, 50 mg/l streptomycin and hormones. […] The cells subjected to either transfection method were harvested 48 hours post-transfection. Reporter assays were performed by lysing the cells in situ with 250 μl of passive lysis buffer (Promega)."}},
  "data": [
    {"binder": "B1", "values": [
      {"measurement": "activity", "setting": "ER4.3 (in cell)", "result": "> 80", "unit": "fold induction"},
      {"measurement": "activity", "setting": "ER3M (in cell)", "result": "> 80", "unit": "fold induction"}
    ]},
    {"binder": "B2", "values": [
      {"measurement": "binding signal", "setting": "ERα wild type (hERα)", "result": "> 100", "unit": "fold weaker than cERE"},
      {"measurement": "binding signal", "setting": "ER3.1", "result": "> 30 fold higher affinity than WT"},
      {"measurement": "binding signal", "setting": "ER4.3", "result": "> 30 fold higher affinity than WT"},
      {"measurement": "binding signal", "setting": "ER4", "result": "> 30 fold higher affinity than WT"},
      {"measurement": "binding signal", "setting": "ER2", "result": "> 30 fold higher affinity than WT"},
      {"measurement": "binding signal", "setting": "ER3M", "result": "> 30 fold higher affinity than WT"}
    ]},
    {"binder": "B3", "values": [
      {"measurement": "activity", "setting": "ERα wild type (in cell)", "result": 41, "unit": "fold induction"}
    ]}
  ]
}
